We go through seven molecules from patent publication US20250355001A1, “METHOD FOR DETECTING A TAU PROTEIN FRAGMENT IN A SAMPLE” (GTINVENT LIMITED, priority 2022, published 2025).

Assay [1] relates to hT40, dGA, dGAE and truncated tau fragments. Briefly: Binding ELISA / epitope mapping of anti-tau scAbs with truncated tau proteins and 13mer peptides. Further details: species or system human. As to conditions: for Short epitope on hT40: Table 18, '3a' & '3b' series scAbs; for hT40 binding region: second Table 25, mAb format. Here is the method: A series of binding ELISA was performed using various truncated versions of the tau protein and 13mer peptide libraries spanning the entire hT40 molecule for mapping the epitopes of anti-tau scAbs (Full list of protein antigens used is given in Table 14). In general, ELISA plates were coated with 1 μg/ml hT40 or dGA or dGAE or other truncated versions of the protein and in the case of biotinylated peptides, plates were coated with 5 μg/ml Streptavidin followed by 1 μg/ml biotinylated peptide. The plates were blocked with 2% MPBS and scAb samples added at desired starting concentrations and double diluted across the plate. Binding was detected using anti-Human C Kappa HRP conjugated secondary antibody and the resulting immunoreaction was developed and absorbance values measured as described above.
Selected E specific scAbs and their specific binding to dGAE is shown below (FIG. 8A-E).
Similarly, dGA binding ‘NS’, ‘S’ and ‘M’ group scAbs were subjected to further antigen binding ELISA using shorter tau proteins and biotinylated 13mer peptides as shown below (FIG. 10A-F) and (FIG. 11A-R).
A general note: In an ELISA, binding on a coated surface is turned into a signal by an enzyme label.

Assay [2] has as its target T1, hT40 (T441, SEQ ID NO: 1) (Homo sapiens, UniProt P10636).
T1 construct: Full length tau (hT40)
Briefly: Biacore X100 SPR kinetics of scAbs for hT40. The class given is binding. The note with it: Table 25; '3a' and '3b' scAbs, hT40. As for the experimental part:
Surface plasmon resonance (SPR) is widely regarded as the gold standard for real time measurement of protein-protein interactions such as antibody binding. All SPR experiments were carried out using a Biacore X100 machine and HBS EP+ running buffer (GE Healthcare). A ‘capture’ method was followed for affinity measurements, where an anti-human constant kappa chain (HuCk) antibody was conjugated to the surface of a CM5 sensor chip using an amine coupling kit and scAb molecules were immobilised via their HuCk domain. Amine coupling is a very common approach for immobilising the ligand to the chip surface. […] The capture antibody was diluted 1/100 in 10 mM Sodium acetate buffer pH 5.0 and passed over the activated chip surface for a period of at least 420 s. Final ligand immobilisation levels over 12,000 RU were deemed to be satisfactory.
Following immobilisation, the level of each scAb to be captured was identified using the standard SPR equation with a theoretical RMax of 100 RU. Analyte MW refers to the molecular weight of hT40 or dGA/dGAE molecules, while ligand MW refers to the molecular weight of the scAbs tested. RL is the desired capture level and S refers to the stoichiometric ratio:
The scAb to be tested was added only to flow cell 2 so that flow cell 1 could act as a control to subtract any interaction with the analyte and the chip surface. Both single and multi-cycle runs were utilised using wizards developed in the Biacore X100 control software which are both accepted methods of kinetic analysis (Karlsson, R., et al. Analyzing a kinetic titration series using affinity biosensors (2006) Analytical Biochemistry 349:136-47). The multi-cycle protocol was as follows-Three start-up cycles composed of an initial capture, to the desired level, of the scAb to be tested was performed followed by a 30 s injection of glycine buffer pH 2.0 after each cycle to regenerate the chip surface. […] Following three start-up cycles increasing concentrations (0.15625 nM-100 nM) of the target to be tested were added to the chip surface after the desired scAb capture. The target was added for a 120 s association period and 420 s dissociation period followed by another regeneration, 30 s injection of glycine buffer pH 2.0 in between each cycle.
The single cycle kinetics protocol was similar and utilised the same level of scAb capture. Three start-up cycles were used followed by 5 increasing concentrations of the analyte (6.25 nM-100 nM) for an association period of 120 s followed by a dissociation period of 420 s for each concentration. In single cycle kinetics the regeneration step was performed only after the final analyte concentration was added. Binding responses were analysed in Biacore X100 evaluation software and data fitted to a 1:1 binding model to obtain kinetic and affinity characterisation.
On the technique in general: In SPR one partner is held on a chip, and binding of the other changes the refractive index at the surface.

The target of a further assay is T2, htau40 (Homo sapiens, UniProt P10636).
T2 construct: Full length tau (hT40)
T2 sequence (P10636 1-441 isoform P10636-8): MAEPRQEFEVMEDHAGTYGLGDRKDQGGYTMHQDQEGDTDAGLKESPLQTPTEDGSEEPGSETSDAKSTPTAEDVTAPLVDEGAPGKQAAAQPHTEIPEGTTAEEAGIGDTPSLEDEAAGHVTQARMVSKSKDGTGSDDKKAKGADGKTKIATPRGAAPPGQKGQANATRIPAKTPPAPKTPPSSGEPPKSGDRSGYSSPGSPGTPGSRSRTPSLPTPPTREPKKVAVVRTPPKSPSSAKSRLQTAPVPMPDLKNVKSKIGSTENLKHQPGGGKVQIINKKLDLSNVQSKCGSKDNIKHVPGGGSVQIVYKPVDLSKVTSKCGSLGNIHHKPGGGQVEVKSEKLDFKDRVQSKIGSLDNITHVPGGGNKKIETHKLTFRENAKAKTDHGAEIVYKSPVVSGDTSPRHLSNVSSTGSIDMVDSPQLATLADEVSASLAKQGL
Briefly: Biacore X100 SPR kinetics of anti-tau mAbs on immobilised htau40. It is filed as binding. The note with it: second Table 25; newly converted mAbs, hT40. As for the experimental part:
For anti-tau mAb SPR measurements, htau40 was conjugated to the surface of a CM5 sensor chip using amine coupling as explained previously. Briefly, 2 μg/mL htau40 in 10 mM Sodium acetate buffer (pH 4.0) was passed over the activated chip surface (EDC/NHS) in flow cell 2 for a period for 45 s followed by blocking with 1 M ethanolamine-HCl PH 8.5. Flow cell 1 was set up as reference control and blocked simultaneously. Final immobilisation level of htau40 (Rmax) was approximately 250 RU. Following a minimum of three start-up cycles, increasing concentrations (0.78 nM-25 nM) of the mAb in HBS-EP+ buffer was added at a rate of […] to the chip. The mAb was added for a 120 s association period and 600 s dissociation period followed by a regeneration cycle of 30 s injection of glycine buffer pH 1.5 in between each cycle. Binding responses were analysed in Biacore X100 evaluation software and data fitted to a 1:1 binding model to obtain kinetic and affinity characterisation.
For anti-tau mAb SPR measurements (Biacore X100™) and epitope mapping, the same methodologies described above (see Example 16) were followed. Kinetic rates and equilibrium binding constants of additional anti-tau mAbs and the regions recognised on hT40 are given in the Table 25 below

Where [3] appears, read: residue numbers of SEQ ID NO: 1 (hT40), CDR Tables 1-11.

T1 sequence (P10636 1-441 isoform P10636-8): as above

B1: 3aB7: anti-tau clone, Table 7; SEQ ID NO: 420 (protein)
chain: QVQLQESGPSLVKPSQTLSLTCTVSGFSLTSNGVGWVRQAPGKVPEWVGDKSSAGKTYGNPALKSRLSITRDTSKSQVSLSLSSVTTEDTAVYYCVRCRDGGVTYGYDVDYWGPGLLVTVSSEGKSSGASGESKVDDQAVLTQPSSVSKSLGQSVSITCSGSSSNVGYGDVVSWFQQFPGSAPKLLIFGTTTRASGVPDRFSGSRSGNAATLTINSLQAEDEADYYCASFDSDSGGIAGSGTRLTVLG
modifications: 3aB7 amino acid sequence
Turning to B1, the “Short epitope on hT40” value in assay [1] is recorded as 49-111. The Epitope in assay [1] (setting [3]) is 49-111. Besides, in assay [2], the “ka” value came out at 207200 M⁻¹ s⁻¹ and the “kd” value is 0.01435 s⁻¹.

B2: 3bD11: anti-tau clone, Table 10; SEQ ID NO: 637 (protein)
scFv: RVRLQGSGPSLVKPSQTLSLTCTVSGFSFDSYYVGWVRQAPGKALEWLGNIYSTGRAFYNPALKSRLSITRDTSKSQVSLSVSSVTIEDTALYYCVRGSYYHGGGNGMVDFFDYWSPGLLVTVSSEGKSSGASGESKVDDQVVRTQPSSVSGSLGQRVSITCSGSSSNVGYGNYVGWFQQVPGSAPKLLIYAATSRASGVPDRFSGSRSGNTATLTIDSLQAEDEADYYCSSYQRGNTGVFGSGTRLTVLG
Take B2: the Epitope in assay [1] (setting [3]) is 37-49. The hT40 binding region in assay [1] is given as 37-49. In the assay with htau40, the “ka” value was found to be 2.671e+06 M⁻¹ s⁻¹ and the “kd” value is 0.003979 s⁻¹.

B3: 3aD3: N-terminal anti-tau clone, Table 6; SEQ ID NO: 422 (protein)
chain: QVQLQESGPSLVKPSQTLSLTCTVSGFSLTSNGVGWVRRAPGKVPEWVGDISSGGKVYGHPALKSRLSITRDTSKSQVSLSVSSVTSEDTAVYYCVRCRDGGVSYGYDSDYWGPGLLVTVSSEGKSSGASGESKVDDQAVVTQPSSVSKSLGQSVSITCSGSSSNVGYGDYVGWFQQVPGSAPKLLIYGVTERASGVPDRFSGSRSGNTATLTISSIQAEDEADYYCASYDDSSGGIFGSGTRLTVLG
modifications: 3aD3 amino acid sequence
For B3, the “Short epitope on hT40” value in assay [1] was 1-49. In assay [1] (setting [3]), the Epitope is on record as 1-49. Further, in assay [2], the “ka” value is 544400 M⁻¹ s⁻¹ and the “kd” value was 0.01038 s⁻¹.

B4: 3aA6: anti-tau clone, Table 8; SEQ ID NO: 418 (protein)
chain: QVRLQESGSSLVKPSQTLSLVCTVSGFPLTSNAVGWVRQAPGKAPEWLGLIDIDGDTAYNPALESRLSITRDTSKSQVSLSLSSVAIEDTAVYYCARHYDKWGYADSIDYWGPGLLVTVSSEGKSSGASGESKVDDQALLTQPSSVFGSLGQRVSITCSGSSSNVGYGDYVGWYQQVPGSAPKLLIYDATTRASGVPDRFSGSRSGNTATLTISSLQAEDEADYYCASYQNERSGVFGSGTRLTVLG
modifications: 3aA6 amino acid sequence
In the case of B4, the “Short epitope on hT40” value in assay [1] is 147-157. The Epitope in assay [1] (setting [3]) was 147-157. Besides, in assay [2], the “ka” value was 19000 M⁻¹ s⁻¹ and the “kd” value came to 0.0188 s⁻¹.

B5: MD9: anti-tau clone, Table 10; SEQ ID NO: 373 (protein)
scFv: QVRLQESGPSLVKSSQTLSLTCTVSGFSLTRESIAWVRQAPGKVPEWLGGVGIDGTSYYSPALKSRLSITRDTSKSQASLSLSSVATEDTAMYYCARNYIDFEYWGPGLLVTVSSEGKSSGASGESKVDDQAVLTQLSSVSGSLGQRISITCSGSSSNVGIYDVSWFQQLPGSGLRTVIYGTNNRPSGVPDRFSGSRSGNTATLTISSLQSEDEAIYYCAAGDSSTIAVFGSGTRLTVLG
modifications: MD9 amino acid sequence
As for B5, in assay [1] (Table 16, NS, S and M clones, binding ELISA), the “Tau proteins/fragments with positive scAb reactivity” value is “hT40, 297-390 (dGA), 297-391 (dGAE), 369-390, 369-391”. Also, the “Shortest region bound on hT40” value in assay [1] (Table 16, NS, S and M clones, incl. 13mer peptides) was 373-385. Also, the Epitope in assay [1] (Table 26 summary, top scAbs, residues of hT40) is 373-385. Besides, in assay [1] (setting [3]), the Epitope is 373-385. Also, the hT40 binding region in assay [1] is listed as 373-385. For the same molecule, in the assay with htau40, the “ka” value is 66200 M⁻¹ s⁻¹ and the “kd” value was 0.001462 s⁻¹.

B6: 3bF4: anti-tau clone, Table 7; SEQ ID NO: 421 (protein)
chain: QVQLQESGPSLVKPSQTLSLTCTVSGFSLSSNGVGWVRQAPGKVPEWLGDISSVGKKYANPALKSRLSFTRDTSKSQVSLSLSSVTTEDTAVYYCVKCRDGGVTYGYDIDYWGPGLLVTVSSEGKSSGASGESKVDDQAVLTQPSSVSKSTGQTVSITCSGSSSNVGLRNYVTWFQQVPGSAPKLLIYGATSRASGIPDRFSGSRSGNTATLIISSLQAEDEADYYCASADTNDGGVFGSGTRLTVLG
modifications: 3bF4 amino acid sequence
Regarding B6, the “Short epitope on hT40” value in assay [1] was 49-111. Also, the Epitope in assay [1] (setting [3]) is on record as 49-111. In assay [2], the “ka” value turned out to be 109300 M⁻¹ s⁻¹ and the “kd” value came to 0.01532 s⁻¹.

B7: C-B3 (protein)
scFv: QVQLQESGPSLVKPSQTLSLTCTVSGFSLSSVAVNWVRQAPGKVPEWLGGIISNGGTGYNPALKSRLSITRDTSKSQVSLALTHVTTEDTAVYYCGRGVEWEGSMDYLGPGLLVTVSSEGKSSGSGSETKVDDQSVLTQPSSVSGFLGQRVTITCSGSSSNVGAGSYVGWYQQVPGSGLRILIYGATKRASGLPDRFSGSRSGNTATLTISSLQAEDEADYYCVSYQTDFTLVFGSGTRLTVLG
modifications: left off: small tags and cut ends
As to B7, the “Binding regions on hT40” value in assay [1] (Table 33, core binding scAbs tested in epitope occlusion assays) is on record as 360-390.
